The source of these data is patent publication US20200353067A1.

The assay has as its target CX3CR1 (fractalkine receptor) (human) (UniProt P49238). Nature of the assay: cell-based or functional assay.
Chain of UniProt P49238 (P49238 whole entry): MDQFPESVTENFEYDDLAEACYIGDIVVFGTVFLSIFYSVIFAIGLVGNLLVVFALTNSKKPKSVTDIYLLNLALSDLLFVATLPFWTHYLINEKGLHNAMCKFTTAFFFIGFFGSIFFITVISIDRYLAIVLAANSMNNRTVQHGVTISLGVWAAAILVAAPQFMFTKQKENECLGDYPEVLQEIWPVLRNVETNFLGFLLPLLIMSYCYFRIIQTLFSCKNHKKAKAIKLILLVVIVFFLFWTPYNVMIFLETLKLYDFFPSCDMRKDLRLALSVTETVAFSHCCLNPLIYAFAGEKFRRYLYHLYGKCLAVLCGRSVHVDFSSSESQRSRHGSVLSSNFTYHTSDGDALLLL

As for “RSV A2 strain G-protein (surface attachment glycoprotein) (from UniProt P03423 1-298) (ligand)”, the viral load came out at 2.3 fold.
